Test: yeast display, Sf9 membrane polyspecificity reagent, FACS + sequencing; frameworks hold sequencing errors
Outline: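 Using colony PCR, genes from sorted yeast display clones were amplified, then sequenced on MiSeq at 2 × 250 and filtered by CDR length. The clones had been stained with 10% biotinylated, detergent-solubilized Sf9 membrane reagent for 1 hour at 4 °C and sorted by FACS into low and high (top ~1%) gates on anti-HA and streptavidin fluorescence. Polyreactivity labels come from the gate of origin.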

| Sequence | polyreactivity (PSR sort gate) |
| --- | --- |
| QVQLVESGGGLVQAGGSLRLSCAASGRTFPLYAMGWYIQAPGKERELVAAITRSGGSTYYADSVKGRFTISRDNAKNTVYLQMNSLKPEDTAVYYCNARKSKDRPTGYAFNYWGQGTQVTVSS | high polyreactivity |
| QVQLVESGGGLVQAGGSLRLSCAASGRTFPLYAMGWYRQAPGKERELVAAISYICGSTYYADSVKGLFTISRDNAKNTVYLQMNSLKPEDTAVYYCNADYNYAYDYWGQGTQVTVSS | low polyreactivity |
| QVQLVESGGGLVQAGGSLRLSCAASGRTFPLYAMGWYRQAPGKERELVARINRGGSTYYADSVKGRFTISRDNAKNTVYLQMNSLKPEDTAVYYCNARHTWHQTYDYWGQGTQVTVSS | low polyreactivity |
| QVQLVESGGGLVQAGGSLRLSCAASGRTFPLYAMGWYRQAPGKERELVASITSDSSTYYADSVKGRFTISRDNAKNTVYLQMNSLKPEDTAVYYCAATTIPYPYTEFDYWGQGTQVTVSS | low polyreactivity |
| QVQLVESGGGLVQAGGSLRLSCAASGRTFPNYVIGWYRQATGKERELVAAINSGGRTNYADSVKGRFTISRDNAKNTVYLQMNRLKQEDTAFYFCTKRGHPARLGYYYWGQGTQVTVSS | low polyreactivity |
| QVQLVESGGGLVQAGGSLRLSCAASGRTFPPYGMGWNRQAPGKERELVADISKSSGSTNYADSVKARFTISRDKAKNTVYLQMNSVKPEDTAVYYCNVDLYRWSKLAGAYRMDYSGQGTQVTVSS | low polyreactivity |
| QVQLVESGGGLVQAGGSLRLSCAASGRTFPRNGMGWYRQAPGKERELVAAIRYSGGSTYYADSVKGRFTISRDNAKNTVYLQMNSLKPEDTAVYYWAAGRNRAGGFGSWGQGTQVTVSS | high polyreactivity |
| QVQLVESGGGLVQAGGSLRLSCAASGRTFPRNGMGWYRQAPGKERELVAAISWSGGRTYYADSVKGRFTISRDNAKYTVYLQMNSLKPEDTAVYYCNALYFRKGGYWGHGTQVTVSS | high polyreactivity |
| QVQLVESGGGLVQAGGSLRLSCAASGRTFPRYAMGWYRQAPGKERELVAAISVRAGITYYADSVKGRFTISRDNAKNTVYLQMKSLKPEDTADYYCAKDHWTSSYDEGDYWGQGTQVTVSS | low polyreactivity |
| QVQLVESGGGLVQAGGSLRLSCAASGRTFPRYAMGWYRQAPGKERELVAAITRRGSSTYYADSVKGRFTISRDNAKNTVYLQMNSLKPEDTAVYYCATSYHGYYYRYDYWGQGTQVTVSS | high polyreactivity |
| QVQLVESGGGLVQAGGSLRLSCAASGRTFPRYTMGWYRPAPGKERELVAASATGGSTYYADSVKGRFTISRDNAKNTVYLQMNSLKPEDTAVYYCAARPYSNRYVLGVYYWGQGTQVTVSS | high polyreactivity |
| QVQLVESGGGLVQAGGSLRLSCAASGRTFPSYAMGWYRQAPGKERELVAAISSRGSRTYYADSVKGRFTISRDNAKNTVYLQMNSLKPEDTAVYYCAAKNLWTRKSRYDYWGQGTQVTVSS | high polyreactivity |
| QVQLVESGGGLVQAGGSLRLSCAASGRTFPSYTMGWYRQAPGKERELVAAITWTGGSTYYADSVKGRFTISRDNAKNTVYLQINSLKREDTAVYYCADYEYWGQGTQVTVSS | low polyreactivity |
| QVQLVESGGGLVQAGGSLRLSCAASGRTFPSYTMGWYRQAPGKERELVAAITWTGGSTYYADSVKGRFTISRDNAKNTVYLQMNSLKPEDTAVYYCADYDYWGLGTQVTVSS | low polyreactivity |
| QVQLVESGGGLVQAGGSLRLSCAASGRTFPSYTMGWYSQAPGKERELVAAITWTGGSTYYADSVKGRFTISRDNAKNTVYLQMNSLKPEDTAVYYCADYDYWGQGTQVTVSS | low polyreactivity |
| QVQLVESGGGLVQAGGSLRLSCAASGRTFPTNAMGWYRQAPGKERELVARISTRGGSTYYADSVKGRFTISRDNAKNTVYLQMNSLKPEDTAVYYCAARYQGNYRTDKYDYWGQGTQVTVSS | high polyreactivity |
| QVQLVESGGGLVQAGGSLRLSCAASGRTFPTYAMGWDRQAPGKERELVAAITTSGGSTYADSVMGRFTISRDNAKNTVYLQMNSLKPEDTAVYYCATRSFYGGYYYSSGSEFDYWGQGTQVTVSS | low polyreactivity |
| QVQLVESGGGLVQAGGSLRLSCAASGRTFPVYAMGWYRQAPGKERELVAGITGSGGRTYYADSVKGRFTISRDNAKNTVYLQMNSLKPEDTAVYYCAADRNLYWYQHEYCGQGTQVTVSS | low polyreactivity |
| QVQLVESGGGLVQAGGSLRLSCAASGRTFPVYAMGWYRQAPGKERELVATIRRRDGSTYADSVKGRFTISRDNAKNTVYLQMNSLKPEDTAVYYCNAAYRQATPWYYAWYDYWGQVTQVTVSS | high polyreactivity |
| QVQLVESGGGLVQAGGSLRLSCAASGRTFPWYAMGWYRQAPGKERELVAAITISGGRTYYADSVKGRFTISRDNAKNTVYLQMNSLKPEDTAVYYCAAKTSFRYFNYAKPSYGYDYWGQGTQVTVSS | high polyreactivity |
| QVQLVESGGGLVQAGGSLRLSCAASGRTFPYNARGLYRQAPGKERELVASITRRGGSTYYADSVKGRFTISLDNAKNSVYLQMNSVKPEDTAVYYCNAAYPYVRRYKYGYWGQGTLVTVSS | high polyreactivity |
| QVQLVESGGGLVQAGGSLRLSCAASGRTFPYYAKGWYRQAPGKERELVAAISKRGGNTYYADSVKGRFTISRDNAKNTVYLQLNSLIPEVTAVYYCNALSSTEYDYWGQGTQVTVSS | high polyreactivity |

| Sequence | polyreactivity (PSR sort gate) |
| --- | --- |
| QVQLVESGGGLVQAGGSLRLSCAASGRTFPYYAMGWYRQAPGKERELVAAISSSGGRTYYADSVKGRFTISRDNAKNTVYLQMISLKPEDSAVYDCNVDAWYPYQGFLVGYYYWGQGTQVTVSS | low polyreactivity |
| QVQLVESGGGLVQAGGSLRLSCAASGRTFPYYAMGWYRQAPGKERELVATITYSGGSTYYADSVKGRFTISRDNAKNTVYLQMNSLKPEDTAVYYCAADTGEYSAQYDYWGQGTQVTVSS | high polyreactivity |
| QVQLVESGGGLVQAGGSLRLSCAASGRTFPYYDMGWYRQAPGKERELVAAITSGGTTNYADSVKGRFTISRDNAKNTVYLQMNSLKPEDTAVYYCAAGSPWYYFSSYGYWGQGTQVTVSS | low polyreactivity |
| QVQLVESGGGLVQAGGSLRLSCAASGRTFPYYTMGWYRQAPGKERELVAAINSSGGRTYYADSVKGRFTISRDNAKNTVYLQMNSLKPEDTAAYYCAKRGYYKYDWGQGTQVTVSS | high polyreactivity |
| QVQLVESGGGLVQAGGSLRLSCAASGRTFQDYALGWSRQAPGKEREFVADISDGGSTNYADSVKGRFTISRDNAKNTVYLQMNSLKPEVTAVYYCAADQYHGVGINFRSDYDYWGHGTQVTVSS | low polyreactivity |
| QVQLVESGGGLVQAGGSLRLSCAASGRTFQFYAMGWYRQAPGKERELVAAIDLRGGSTYYADSVKGRFTISRDNAKNTVYLQMNSLKPEDTAVYYCNATRSKFGYFYRYDYWGQGTQVTVSS | low polyreactivity |
| QVQLVESGGGLVQAGGSLRLSCAASGRTFQHYVMGWYRQAPGKERELVDSITNDDSTNYADSVKGRFTISRDNAKITVYLQMNRLKPEDTAVYYCNFDDWGTPVEPGDYDYWGQGTQVTVSS | low polyreactivity |
| QVQLVESGGGLVQAGGSLRLSCAASGRTFQNNAMGWYRQAPGKERELVAAISRSGASTYYADSVKGRFTISRDNAKNTVYLQMNSLKPEATAVYYCAAVTKLGYPPVNHLEDDYWGQGTQVTVSS | low polyreactivity |
| QVQLVESGGGLVQAGGSLRLSCAASGRTFQNNAMGWYRQAPGKERELVAAISWRGTSTYYADSVKGRFTISRDNANNTVYLQMNSLKPEDTAVYYCAAYPKYGFEFKYGYWGQGTQVTVSS | high polyreactivity |
| QVQLVESGGGLVQAGGSLRLSCAASGRTFQQNAMGWYRQAPGKERELVAAINSRGGRTYYADSVKGRFTISRDNAKNTVYLQMNSLKPEDTAVYYCNAVVYTRPYTRPRYRYDYWGQGTQVTVSS | high polyreactivity |
| QVQLVESGGGLVQAGGSLRLSCAASGRTFQRNAMGWYRQAPGKERELVAAITTGSRTYYADSVKGRFTISRDNAKNTVYLQMNSLKPEDTAFYYCAAVATRRDYGYWGQGTQVTVLS | high polyreactivity |
| QVQLVESGGGLVQAGGSLRLSCAASGRTFQRYAMGWYRQAPGKERELVAAISFSGGSTYYADSVKGRFTISRDNAKNTVYLQMNSLKPEDTAVYYCAAYHARSGYDSWGQGTQVTVSS | high polyreactivity |
| QVQLVESGGGLVQAGGSLRLSCAASGRTFQTNVMGWYRQAPGKERELVAAISKTGGRTYYADSVKGRFTISRDNAKNTVYLQMNSLKPEDTAVYYCAADSSGYEDYDYWGQGTQVTVSS | high polyreactivity |
| QVQLVESGGGLVQAGGSLRLSCAASGRTFQWYAMGWYRQAPGKERELVAAISYSDASTYYADSVKGRFTISRDNAKNTVYLQMNSLKPEDTAVYYCAAVYYVVYGPWGGSYYWGQGTQVTVSS | low polyreactivity |
| QVQLVESGGGLVQAGGSLRLSCAASGRTFQWYVMGWYRQAPGKERELVAAITKSGGSTFYADSVKGRFTISRDNAKNTVYLQMNSLKPEDTAVYYCAASGRYAIVLGDQYYGYYYWGQGTQVTVSS | high polyreactivity |
| QVQLVESGGGLVQAGGSLRLSCAASGRTFQYNTMGWYRQAPGKERELVAAISWSGGRTYYADSVKGRFTISRDNAKNTVYLQMNSLKPEDTAVYYCAADGTPEIRDNYWGQGTQVTVSS | high polyreactivity |
| QVQLVESGGGLVQAGGSLRLSCAASGRTFQYYAMGWYRQAPGKERELVATISYSGGSTSYADSVKGRFTISRDNAKNTVYLQMNSLKPEDTAVYYCAADYYYGDALSPYYPHWDFYYWGQGTQVTVSS | low polyreactivity |
| QVQLVESGGGLVQAGGSLRLSCAASGRTFRANAMGWYRQAPGKERELVAAISKRGGNTYYADSVKGRFTISRDNAKYTVYLQMNSLKPEDTAVYYCAAHFIGRDYDYWGQGTQVTVSS | high polyreactivity |
| QVQLVESGGGLVQAGGSLRLSCAASGRTFRANTMGWYRQAPGKERELVAAISHSGGSTYYADSVKGRFTISRDNAKYTVYLQMISLKPEDTAVYYCATDGGSYSWASPRVDYWGQGTQVTVSS | low polyreactivity |
| QVQLVESGGGLVQAGGSLRLSCAASGRTFRAYAMGWNRQPPGKVRELVAVISLSGGSTYYADSVKGRFTISRDNAKNTVYLQMNSLKPEDTAVYYCAAVDWSYTGWRYDYWGQGTQVTVSS | low polyreactivity |
| QVQLVESGGGLVQAGGSLRLSCAASGRTFRAYGMGWYRQAPGKERELVAVISWRDGSTFYADSVKGRFTISRDNAKNTVYLQMNSLNPEDTAVYYCNTAYYPGNYSQYDYWGQGTQVTVSS | low polyreactivity |

Reference: the nanobody polyreactivity screen of Harvey et al. (2022)
